US20120316071A1 (published 2012)

T1: rHuman Erythropoietin R/Fc Chimera, CF (human, UniProt P19235 25-250)
T1 construct: Bought from R&D Systems; also called EPO R; EPO R/Fc; not shown: Fc of the bought chimera
T1 sequence (looked up): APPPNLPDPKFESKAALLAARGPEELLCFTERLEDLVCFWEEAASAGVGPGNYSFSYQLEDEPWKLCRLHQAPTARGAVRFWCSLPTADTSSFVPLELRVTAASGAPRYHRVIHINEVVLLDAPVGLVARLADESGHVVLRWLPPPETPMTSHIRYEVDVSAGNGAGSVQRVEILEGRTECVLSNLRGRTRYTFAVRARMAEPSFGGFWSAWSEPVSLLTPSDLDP

T2: rHuman Erythropoietin R/Fc Chimera, CF (R&D Systems Cat#963-ER) (human, UniProt P19235 25-250)
T2 construct: Bought recombinant protein; also called EPO R; EPO R/Fc
T2 sequence (looked up): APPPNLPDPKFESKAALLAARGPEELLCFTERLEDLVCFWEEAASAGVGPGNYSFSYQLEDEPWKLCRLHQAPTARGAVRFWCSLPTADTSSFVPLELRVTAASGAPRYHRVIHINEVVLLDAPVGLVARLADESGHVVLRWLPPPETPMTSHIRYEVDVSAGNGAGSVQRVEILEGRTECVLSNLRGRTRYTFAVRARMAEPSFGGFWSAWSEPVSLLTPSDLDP


What was measured:
[1] = molecular target: T3, rHuman ErbB2/Fc Chimera, CF (human, UniProt P04626 23-652); assay: ECL Multispot (MSD) assay; antigen spotted on plate, Fab in solution;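 also: fab bound 1 h at 20 °C, detected by TAG-labelled antibody electrochemiluminescence, signal relative to each well's blank, ratio of 4 or more marks a hit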
T3 construct: Bought from R&D Systems; also called human epidermal growth factor 2 receptor; not shown: Fc of the bought chimera

[2] = molecular target: T4, rHuman EGF R/Fc Chimera, CF (human, UniProt P00533 25-645); assay: as above
T4 construct: Bought from R&D Systems; also called epidermal growth factor receptor; not shown: Fc of the bought chimera

[3] = molecular target: T5, rHuman HGF R/c-MET/Fc Chimera, CF (human, UniProt P08581 25-932); assay: as above
T5 construct: Bought from R&D Systems; also called HGF R/Fc; hepatocyte growth factor receptor; not shown: Fc of the bought chimera

[4] = molecular target: T6, rHuman Notch-1/Fc Chimera, CF (human, UniProt P46531 19-526); assay: as above
T6 construct: Bought from R&D Systems; not shown: Fc of the bought chimera

[5] = molecular target: T7, rHuman CD44/Fc Chimera, CF (human, UniProt P16070 21-220); assay: as above
T7 construct: Bought from R&D Systems; not shown: Fc of the bought chimera

[6] = molecular target: T8, rHuman IGF-1 sR, (IGF-1 sR), CF (human, UniProt P08069 31-932); assay: as above
T8 construct: Bought from R&D Systems; also called insulin-like growth factor-1 soluble receptor

[7] = molecular target: T9, rHuman P-Cadherin/Fc Chimera, CF (human, UniProt P22223 108-654); assay: as above
T9 construct: Bought from R&D Systems; not shown: Fc of the bought chimera

[8] = molecular target: T1, rHuman Erythropoietin R/Fc Chimera, CF; assay: as above
Recombinant Human DLL4 = molecular target: T10, Recombinant Human DLL4 (human, UniProt Q9NR61 27-524); assay: as above
T10 construct: Bought from R&D Systems; also called delta-like protein 4; rHuman DLL4

[9] = molecular target: T11, rHuman ErbB2/Fc Chimera, CF (R&D Systems Cat#1129-ER) (human, UniProt P04626 23-652); assay: ECL multispot (MSD) binding assay, antigen spotted on plate;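 also: purified Fab incubated 1 h at 20 °C on antigen spots, detected with TAG-labelled antibody, electrochemiluminescence compared with each well's blank, signal-to-blank ratio ≥4 counted as hit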
T11 construct: Bought recombinant protein; also called human epidermal growth factor 2 receptor

[10] = molecular target: T12, rHuman EGF R/Fc Chimera, CF (R&D Systems Cat#344-ER) (human, UniProt P00533 25-645); assay: as above
T12 construct: Bought recombinant protein; also called epidermal growth factor receptor

[11] = molecular target: T13, rHuman HGF R/c-MET/Fc Chimera, CF (R&D Systems Cat#358-MT/CF) (human, UniProt P08581 25-932); assay: as above
T13 construct: Bought recombinant protein; also called HGF R/Fc; hepatocyte growth factor receptor

[12] = molecular target: T14, rHuman Notch-1/Fc Chimera, CF (R&D Systems Cat#3647-TK) (human, UniProt P46531 19-526); assay: as above
T14 construct: Bought recombinant protein

[13] = molecular target: T15, rHuman CD44/Fc Chimera, CF (R&D Systems Cat#3660-CD) (human, UniProt P16070 21-220); assay: as above
T15 construct: Bought recombinant protein

[14] = molecular target: T16, rHuman IGF-1 sR, (IGF-1 sR), CF (R&D Systems Cat#391-GR) (human, UniProt P08069 31-932); assay: as above
T16 construct: Bought recombinant soluble receptor; also called insulin-like growth factor-1 soluble receptor

[15] = molecular target: T17, rHuman P-Cadherin/Fc Chimera, CF (R&D Systems Cat#861-PC) (human, UniProt P22223 108-654); assay: as above
T17 construct: Bought recombinant protein

[16] = molecular target: T2, rHuman Erythropoietin R/Fc Chimera, CF …; assay: as above
[17] = molecular target: T18, Recombinant Human DLL4 (R&D Systems Cat#1506-D4/CF) (human, UniProt Q9NR61 27-524); assay: as above
T18 construct: Bought recombinant protein; also called delta-like protein 4; rHuman DLL4

T13 sequence (P08581 25-932, change not shown): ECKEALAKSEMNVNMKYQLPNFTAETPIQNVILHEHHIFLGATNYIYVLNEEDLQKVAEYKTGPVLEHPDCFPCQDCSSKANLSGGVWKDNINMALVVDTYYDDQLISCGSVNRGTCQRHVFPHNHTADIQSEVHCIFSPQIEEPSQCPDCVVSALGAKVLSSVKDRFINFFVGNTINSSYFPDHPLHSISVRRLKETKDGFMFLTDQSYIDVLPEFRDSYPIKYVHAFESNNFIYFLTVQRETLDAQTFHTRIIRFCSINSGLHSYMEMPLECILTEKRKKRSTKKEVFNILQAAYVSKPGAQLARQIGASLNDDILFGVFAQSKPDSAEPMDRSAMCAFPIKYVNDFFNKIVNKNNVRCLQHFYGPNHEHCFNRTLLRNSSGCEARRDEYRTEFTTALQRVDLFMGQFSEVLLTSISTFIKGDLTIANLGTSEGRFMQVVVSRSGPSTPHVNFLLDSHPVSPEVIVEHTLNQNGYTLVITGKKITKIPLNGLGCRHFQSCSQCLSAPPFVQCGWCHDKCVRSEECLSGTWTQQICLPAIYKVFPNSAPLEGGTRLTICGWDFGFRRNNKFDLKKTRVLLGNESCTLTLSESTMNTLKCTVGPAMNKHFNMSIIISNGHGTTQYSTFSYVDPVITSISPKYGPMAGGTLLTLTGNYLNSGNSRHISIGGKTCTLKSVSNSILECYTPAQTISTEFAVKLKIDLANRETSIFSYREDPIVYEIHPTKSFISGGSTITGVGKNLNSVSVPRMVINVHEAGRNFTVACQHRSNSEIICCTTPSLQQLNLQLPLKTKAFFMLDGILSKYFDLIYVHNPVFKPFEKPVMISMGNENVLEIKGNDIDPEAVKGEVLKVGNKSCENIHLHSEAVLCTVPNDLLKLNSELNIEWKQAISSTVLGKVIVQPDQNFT
T5 sequence (P08581 25-932, change not shown): as above

| Binder | ECL signal [1] | ECL signal [2] | ECL signal [3] | ECL signal [4] | ECL signal [5] | ECL signal [6] | ECL signal [7] | ECL signal [8] | ECL signal (Recombinant Human DLL4) | ECL signal [9] | ECL signal [10] | ECL signal [11] | ECL signal [12] | ECL signal [13] | ECL signal [14] | ECL signal [15] | ECL signal [16] | ECL signal [17] |
| --- | --- | --- | --- | --- | --- | --- | --- | --- | --- | --- | --- | --- | --- | --- | --- | --- | --- | --- |
| Fab VH1-46_IGHD6-6*01_IGHJ1*01 S102A/S103P/S104F/H111F (APFF) & L6_IGKJ1*01 S28L (Fab, V domains shown, Fab made in E. coli; the variable domains were cloned into Plasmid A (CH1, His and Flag tags) and Plasmid C (kappa CL); also called APFF / S28L) VH: QVQLVQSGAEVKKPGASVKVSCKASGYTFTSYYMHWVRQAPGQGLEWMGIINPSGGSTSYAQKFQGRVTMTRDTSTSTVYMELSSLRSEDTAVYYCAREEYAPFSAEYFQFWGQGTLVTVSS VL: EIVLTQSPATLSLSPGERATLSCRASQLVSSYLAWYQQKPGQAPRLLIYDASNRATGIPARFSGSGSGTDFTLTISSLEPEDFAVYYCQQRSNWPPWTFGQGTKVEIKR | 222 | 378 | 317 | 392 | 365 | 346 | 418 | 404 | 72300 |  |  |  |  |  |  |  |  |  |
| Fab VH1-46_IGHD6-6*01_IGHJ1*01 S102A/S103P/S104F/H111F (APFF) & L6_IGKJ1*01 S31M (Fab, V domains shown, Tested as Fab (CH1 with His6/Flag tags, kappa CL) made in E. coli; also called APFF / S31M) VH: QVQLVQSGAEVKKPGASVKVSCKASGYTFTSYYMHWVRQAPGQGLEWMGIINPSGGSTSYAQKFQGRVTMTRDTSTSTVYMELSSLRSEDTAVYYCAREEYAPFSAEYFQFWGQGTLVTVSS VL: EIVLTQSPATLSLSPGERATLSCRASQSVSMYLAWYQQKPGQAPRLLIYDASNRATGIPARFSGSGSGTDFTLTISSLEPEDFAVYYCQQRSNWPPWTFGQGTKVEIKR |  |  |  |  |  |  |  |  |  | 352 | 380 | 293 | 474 | 488 | 445 | 510 | 573 | 167000 |
| Fab VH1-46_IGHD6-6*01_IGHJ1*01 S102A/S103P/S104F/H111F (APFF) & L6_IGKJ1*01 S28V (Fab, V domains shown, Fab made in E. coli; the variable domains were cloned into Plasmid A (CH1, His and Flag tags) and Plasmid C (kappa CL); also called APFF / S28V) VH: QVQLVQSGAEVKKPGASVKVSCKASGYTFTSYYMHWVRQAPGQGLEWMGIINPSGGSTSYAQKFQGRVTMTRDTSTSTVYMELSSLRSEDTAVYYCAREEYAPFSAEYFQFWGQGTLVTVSS VL: EIVLTQSPATLSLSPGERATLSCRASQVVSSYLAWYQQKPGQAPRLLIYDASNRATGIPARFSGSGSGTDFTLTISSLEPEDFAVYYCQQRSNWPPWTFGQGTKVEIKR | 231 | 327 | 338 | 289 | 380 | 284 | 344 | 446 | 83100 |  |  |  |  |  |  |  |  |  |
| Fab VH1-46_IGHD6-6*01_IGHJ1*01 S102A/S103P/S104F/H111F (APFF) & L6_IGKJ1*01 S31D (Fab, V domains shown, Tested as Fab (CH1 with His6/Flag tags, kappa CL) made in E. coli; also called APFF / S31D) VH: QVQLVQSGAEVKKPGASVKVSCKASGYTFTSYYMHWVRQAPGQGLEWMGIINPSGGSTSYAQKFQGRVTMTRDTSTSTVYMELSSLRSEDTAVYYCAREEYAPFSAEYFQFWGQGTLVTVSS VL: EIVLTQSPATLSLSPGERATLSCRASQSVSDYLAWYQQKPGQAPRLLIYDASNRATGIPARFSGSGSGTDFTLTISSLEPEDFAVYYCQQRSNWPPWTFGQGTKVEIKR |  |  |  |  |  |  |  |  |  | 479 | 438 | 429 | 510 | 471 | 407 | 451 | 596 | 154000 |
| Fab VH1-46_IGHD6-6*01_IGHJ1*01 S102A/S103P/S104F/H111F (APFF) & L6_IGKJ1*01 S31F (Fab, V domains shown, Tested as Fab (CH1 with His6/Flag tags, kappa CL) made in E. coli; also called APFF / S31F) VH: QVQLVQSGAEVKKPGASVKVSCKASGYTFTSYYMHWVRQAPGQGLEWMGIINPSGGSTSYAQKFQGRVTMTRDTSTSTVYMELSSLRSEDTAVYYCAREEYAPFSAEYFQFWGQGTLVTVSS VL: EIVLTQSPATLSLSPGERATLSCRASQSVSFYLAWYQQKPGQAPRLLIYDASNRATGIPARFSGSGSGTDFTLTISSLEPEDFAVYYCQQRSNWPPWTFGQGTKVEIKR |  |  |  |  |  |  |  |  |  | 295 | 342 | 280 | 349 | 256 | 267 | 369 | 599 | 189000 |
| Fab VH1-46_IGHD6-6*01_IGHJ1*01 S102A/S103P/S104F/H111F (APFF) & L6_IGKJ1*01 S31L (Fab, V domains shown, Tested as Fab (CH1 with His6/Flag tags, kappa CL) made in E. coli; also called APFF / S31L) VH: QVQLVQSGAEVKKPGASVKVSCKASGYTFTSYYMHWVRQAPGQGLEWMGIINPSGGSTSYAQKFQGRVTMTRDTSTSTVYMELSSLRSEDTAVYYCAREEYAPFSAEYFQFWGQGTLVTVSS VL: EIVLTQSPATLSLSPGERATLSCRASQSVSLYLAWYQQKPGQAPRLLIYDASNRATGIPARFSGSGSGTDFTLTISSLEPEDFAVYYCQQRSNWPPWTFGQGTKVEIKR |  |  |  |  |  |  |  |  |  | 288 | 375 | 319 | 365 | 371 | 405 | 346 | 427 | 155000 |
| Fab VH1-46_IGHD6-6*01_IGHJ1*01 S102A/S103P/S104F/H111F (APFF) & L6_IGKJ1*01 S31H (Fab, V domains shown, Tested as Fab (CH1 with His6/Flag tags, kappa CL) made in E. coli; also called APFF / S31H) VH: QVQLVQSGAEVKKPGASVKVSCKASGYTFTSYYMHWVRQAPGQGLEWMGIINPSGGSTSYAQKFQGRVTMTRDTSTSTVYMELSSLRSEDTAVYYCAREEYAPFSAEYFQFWGQGTLVTVSS VL: EIVLTQSPATLSLSPGERATLSCRASQSVSHYLAWYQQKPGQAPRLLIYDASNRATGIPARFSGSGSGTDFTLTISSLEPEDFAVYYCQQRSNWPPWTFGQGTKVEIKR |  |  |  |  |  |  |  |  |  | 307 | 373 | 352 | 421 | 426 | 350 | 480 | 504 | 221000 |
| Fab VH1-46_IGHD6-6*01_IGHJ1*01 S102A/S103P/S104F/H111F (APFF) & L6_IGKJ1*01 S31I (Fab, V domains shown, Tested as Fab (CH1 with His6/Flag tags, kappa CL) made in E. coli; also called APFF / S31I) VH: QVQLVQSGAEVKKPGASVKVSCKASGYTFTSYYMHWVRQAPGQGLEWMGIINPSGGSTSYAQKFQGRVTMTRDTSTSTVYMELSSLRSEDTAVYYCAREEYAPFSAEYFQFWGQGTLVTVSS VL: EIVLTQSPATLSLSPGERATLSCRASQSVSIYLAWYQQKPGQAPRLLIYDASNRATGIPARFSGSGSGTDFTLTISSLEPEDFAVYYCQQRSNWPPWTFGQGTKVEIKR |  |  |  |  |  |  |  |  |  | 222 | 363 | 303 | 421 | 506 | 365 | 444 | 500 | 174000 |
| Fab VH1-46_IGHD6-6*01_IGHJ1*01 S102A/S103P/S104F/H111F (APFF) & L6_IGKJ1*01 S28P (Fab, V domains shown, Fab made in E. coli; the variable domains were cloned into Plasmid A (CH1, His and Flag tags) and Plasmid C (kappa CL); also called APFF / S28P) VH: QVQLVQSGAEVKKPGASVKVSCKASGYTFTSYYMHWVRQAPGQGLEWMGIINPSGGSTSYAQKFQGRVTMTRDTSTSTVYMELSSLRSEDTAVYYCAREEYAPFSAEYFQFWGQGTLVTVSS VL: EIVLTQSPATLSLSPGERATLSCRASQPVSSYLAWYQQKPGQAPRLLIYDASNRATGIPARFSGSGSGTDFTLTISSLEPEDFAVYYCQQRSNWPPWTFGQGTKVEIKR | 427 | 370 | 318 | 416 | 365 | 392 | 605 | 492 | 178000 |  |  |  |  |  |  |  |  |  |
